Measured values from article PMC6081406 (Nature Communications, 2018).
Read-outs that look alike come from different tables or passages of the source.

What was measured:
[1] = target: GABAAR α1 subunit large cytoplasmic loop (AA 334-420) (UniProt P62813)
[2] = target: GABAAR α2 subunit large cytoplasmic loop (AA 335-419) (UniProt P23576)
[3] = target: GABAAR α3 subunit large cytoplasmic loop (AA 392-406) (UniProt P20236)
[4] = target: T1, GABAA receptor alpha2 large intracellular loop (Mus musculus, UniProt P26048); assay: ITC
T1 chain: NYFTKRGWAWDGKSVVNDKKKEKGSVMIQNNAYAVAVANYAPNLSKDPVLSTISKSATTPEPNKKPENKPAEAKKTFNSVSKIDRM

[5] = target: T2, SH3 domain of collybistin (CB-SH3) (mouse (murine), UniProt Q3UTH8 4-72); assay: ITC; CB-SH3 titrated against the GABAAR α-subunit loops and truncated α2 constructs; purified proteins; details: both partners purified
T2 construct: collybistin (CB1, ARHGEF9), murine, residues 4-72, encompassing the complete SH3 domain (residues 8-67); said to be identical to the SH3 domain of the human CB isoform hPEM-2; pGEX vector construct provided by T. Soykan (Brose lab); also called collybistin SH3; source: E. coli, purified (GST tag, in-situ thrombin cleavage, Superdex 200 SEC); not shown: GST, N-terminal, cleaved
T2 sequence (looked up): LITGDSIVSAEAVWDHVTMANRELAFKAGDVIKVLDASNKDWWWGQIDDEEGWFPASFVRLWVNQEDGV

[6] = target: GABAAR α1 subunit large cytoplasmic loop (AA 334-420) (UniProt P62813); assay: ITC; CB-SH3 titrated against the receptor loops and truncated constructs
[7] = target: GABAAR α3 subunit large cytoplasmic loop (AA 392-406) (UniProt P20236); assay: as above
[8] = target: large cytoplasmic loop of the GlyR β subunit (AA 378-425); assay: as above
[9] = target: T3, GABAAR α2 subunit large cytoplasmic loop (AA 335-419) (UniProt P23576 335-419); assay: as above; details: both partners purified
T3 construct: GABAA receptor α2 subunit, large cytoplasmic loop, AA 335-419; also called α2L; GABAAR-α2L

[10] = target: GABAAR-α2 large cytoplasmic loop (AA 335-419); assay: ITC; CB-SH3 titrated against the GABAAR α-subunit loops and truncated α2 constructs; purified proteins
[11] = target: GABAAR-α2 loop truncation α2-351St (AA 307-350); assay: as above
[12] = target: GABAAR-α2 loop fragment α2-min3; assay: as above
[13] = target: GABAAR-α2 loop truncation α2-335St (AA 307-334); assay: as above

## E domain of gephyrin (GephE, AA 318-736) (domain or fragment)
[1]
  Kd: 17 µM
[2]
  Kd: > 500 µM
[3]
  Kd: 5 µM

B1: Collybistin SH3 (protein)
chain: ITGDSIVSAEAVWDHVTMANRGVAFKAGDVIKVLDASNKDWWWGQIDDEEGWFPASFVRLWVNQED
[4]
  Kd: 1 µM

B2: GABAAR-α2 loop fragment α2-min2 (peptide)
chain: KGSVMIQNNAYAVAVANYAPNL
notes: GABA-A receptor subunit alpha-2, stretch of the large cytoplasmic loop
[5]
  Kd: > 500 µM

B3: GABAAR-α2 loop fragment α2-min1 (peptide)
chain: QNNAYAVAVANYAPN
notes: as for B2
[5]
  Kd: > 500 µM

B4: SH3 domain of collybistin (CB-SH3) (domain or fragment, murine, UniProt Q3UTH8 4-72, looked up)
chain: T2 sequence (looked up)
notes: collybistin CB1, murine, residues 4-72, encompassing the complete SH3 domain (residues 8-67); pGEX construct provided by T. Soykan (Brose lab); source: E. coli, purified (GST tag, in-situ thrombin cleavage, Superdex 200 SEC); not shown: GST, N-terminal, cleaved
[6]
  Kd: 500 µM
[7]
  Kd: > 500 µM
[8]
  Kd: > 500 µM
[9]
  Kd: 1.3 µM
[10]
  stoichiometry N: 0.62
[11]
  Kd: 7 µM

B5: SH3 domain of collybistin (CB-SH3), Q3UTH8 4-72 (domain or fragment)
chain: T2 sequence (looked up)
[12]
  Kd: > 500 µM
[13]
  Kd: > 500 µM
